From patent US20210269521A1 (L AND L BIOPHARMA, published 2021)
Read-outs that look alike come from different tables or passages of the source.

Assays:
[1] = target: T1, human TIM-3 extracellular domain-human IgG1 Fc fusion protein (human, UniProt Q8TDQ0 22-199); assay: ELISA
T1 construct: Made in house or bought (ACROBiosystems TM3-H5258); also called TIM-3-hFc; not shown: human IgG1 Fc
Description: (§1) Goat-anti-hFc (Jackson, 109-005-008) was diluted to a concentration of 1 μg/ml with PBS buffer (pH 7.4) and added to a 96-well microplate (Corning, CLS3590-100EA) at a volume of 50 μl/well, then incubated in an incubator at 37° C. for 2 hours (Or the antigen TIM-3 was directly used to coat the microplate with a concentration of 0.5 μg/ml, and then the antibody to be tested was directly added). After discarding the liquid, a blocking solution of 5% skimmed milk (skimmed milk powder purchased from Bright) diluted with PBS was added at 200 μl per well, and the microplate was incubated for 2.5 hours at 37° C. or overnight (16-18 hours) at 4° C. for blocking. The blocking solution was discarded, and the microplate was washed 5 times with PBST buffer (PBS with pH 7.4 containing 0.05% tween-20), then 50 μl/well of 0.5 μg/ml TIM-3-hFc (Example 1) was added and incubated for 2 hours in a 37° C. incubator. After incubation, the microplate was washed 6 times with PB ST. 50 μl/well of supernatant (containing testing antibody) or different concentrations of the antibody to be tested was added, and the microplate was incubated at 37° C. for 2 hours and washed 5 times with PBST. 50 μl/well of 1:2500 diluted HRP-labeled secondary antibody (Jackson Immuno Research, 115-035-003) was added to the microplate, incubating at 37° C. for 1 hour. After washing the microplate 5 times with PBST, 50 μl/well TMB chromogenic substrate (KPL, 52-00-03) was added to the microplate, followed by incubating at room temperature for 10-15 min.

[2] = target: T1, human TIM-3 extracellular domain-human …; assay: ELISA, EC50 of bispecific over EC50 of the monoclonal control
[3] = target: T2, human PD-1 extracellular domain protein expressed in Example 1 (tag not stated) (human, UniProt Q15116 25-170); assay: ELISA, PD-1 coated
T2 construct: extracellular domain; also called PD-1 protein; not shown: human IgG1 Fc or his tag
Description: (§2) PD-1 expressed in Example 1 was diluted to a concentration of 1 μg/ml with PBS buffer, pH 7.4, and added to a 96-well microplate (Corning, CLS3590-100EA) at 50 μl per well, thereby incubating in an incubator at 37° C. for 2 hours. After discarding the liquid, a blocking solution of 5% skimmed milk (Shanghai Shenggong Biological Engineering Co., Ltd., A600669-0250) diluted with PBS was added at 200 μl per well, followed by incubating at 37° C. for 3 hours or 4° C. overnight (16-18 hours)) for blocking. Subsequently, the blocking solution was discarded, and the microplate was washed 5 times with PBST buffer (pH 7.4 PBS containing 0.05% tween-20). […] Subsequently, the microplate was washed 5 times with PBST, then 50 μl/well of 1:2500 diluted HRP-labeled secondary antibody (Jackson Immuno Research, 115-035-003) was added, thereby incubating at 37° C. for 1 hour. After washing the microplate 5 times with PBST, 50 μl/well TMB chromogenic substrate (KPL, 52-00-03) was added, then incubated at room temperature for 5-10 min. Finally, 50 μl/well of 1M H₂SO₄ was added to stop the reaction. […] Go microplate reader (ThermoFisher, 51119200) was used to read the absorption value at 450 nm and the EC50 based on the OD value was calculated.

[4] = target: T2, human PD-1 extracellular domain protein …; assay: ELISA, EC50 of bispecific over EC50 of the monoclonal control
Description: After washing the microplate 5 times with PBST, 50 μl/well TMB chromogenic substrate (KPL, 52-00-03) was added to the microplate, followed by incubating at room temperature for 10-15 min.
as §2

[5] = target: T2, human PD-1 extracellular domain protein …; assay: ELISA, PD-1 coated; remark: listed apart in the source
Description: as §2
(§3) The above-mentioned TIM-3 and PD-1 bispecific antibodies of the present invention were optimized and designed using the methods of Example 2 and Example 5, and their affinity for TIM-3 and PD-1 were tested respectively.

[6] = target: T2, human PD-1 extracellular domain protein …; assay: blocking ELISA, PD-1 coated, competitor biotin-labeled PD-L1
[7] = target: T1, human TIM-3 extracellular domain-human …; assay: ELISA; remark: listed apart in the source
Description: as §1, §3

[8] = target: T2, human PD-1 extracellular domain protein …; assay: ELISA, PD-1 coated; remark: listed apart in the source
Description: as §2
The TIM-3 and PD-1 bispecific antibodies of the present invention were tested for their affinity for TIM-3 and PD-1 using the methods in Example 3 and Example 5, respectively.

[9] = target: T1, human TIM-3 extracellular domain-human …; assay: ELISA; remark: listed apart in the source
Human PD-1-his = target: T3, Human PD-1-his (human, UniProt Q15116 25-170); assay: SPR Biacore, antibody captured on Protein A, antigen in flow
T3 construct: extracellular domain; not shown: his tag
Description: (§4) First, Protein A (Thermo Pierce, Cat #21181) was conjugated to the biosensing chip CMS (Cat. #BR-1005-30, GE), and the chip was activated with the newly prepared 50 mM NHS (N-hydroxysuccinimide) and 200 mM EDC [1-ethyl-3-(3-dimethylaminopropyl) carbodiimide hydrochloride], then 10 μg/ml Protein A prepared with 10 mM NaAC (pH 4.0) was injected. […] The flow rate was 30 μl/min, the binding time was 180 seconds and the dissociation time is 300 seconds. Subsequently, the chip was washed for 30s with 10 mM Glycine-HCl (pH 1.5) at 30 μl/min. The data were fitted with a 1:1 Langmuir model using the software of Biacore T200 evaluation version 3.0 (GE), and the affinity value KD was obtained.

[10] = target: T4, human TIM-3 extracellular domain-his tag protein (human, UniProt Q8TDQ0 22-199); assay: as above
T4 construct: Made in house or bought (ACROBiosystems TM3-H5229); also called TIM-3-his; Human Tim3-his; not shown: his tag
Description: as §4

Row | Binder | EC50 [1] [nM] | Multiple of EC50 variation [2] [ratio] | EC50 [3] [nM] | Multiple of EC50 variation [4] [ratio] | EC50 [8] [nM] | EC50 [9] [nM] | further results
1 | bispecific antibody LB246 (bispecific antibody, human IgG4 S228P, kappa) light: DIQMTQSPSSLSASVGDRVTITCHASQGISSNIGWLQQKPGKAFKGLIYQGSNLEDGVPSRFSGSGSGADYTLTISSLQPEDFATYYCVQFAQFPPTFGQGTKLEIKGGGGSGGGGSGGGGSEVQLVESGGGLVKPGGSLRLSCAASGFTFSDYYMAWVRQAPGKGLEWVANINYDGSNTYYLDSLKSRFTISRDNAKNSLYLQMNSLRAEDTAVYYCARGLYYYGGNYFAYWGQGTLVTVSSGGGGSGGGGSGGGGSEIVLTQSPATLSLSPGERATLSCRASKGVSTSGYSYLHWYQQKPGQAPRLLIYLASYLESGVPARFSGSGSGTDFTLTISSLEPEDFAVYYCQHSRDLPLTFGGGTKVEIKRTVAAPSVFIFPPSDEQLKSGTASVVCLLNNFYPREAKVQWKVDNALQSGNSQESVTEQDSKDSTYSLSSTLTLSKADYEKHKVYACEVTHQGLSSPVTKSFNRGECGGGGSGGGGSGGGGSEVQLVESGGGLVKPGGSLRLSCAASGFTFSDYYMAWVRQAPGKGLEWVANINYDGSNTYYLDSLKSRFTISRDNAKNSLYLQMNSLRAEDTAVYYCARGLYYYGGNYFAYWGQGTLVTVSSGGGGSGGGGSGGGGSDIQMTQSPSSLSASVGDRVTITCHASQGISSNIGWLQQKPGKAFKGLIYQGSNLEDGVPSRFSGSGSGADYTLTISSLQPEDFATYYCVQFAQFPPTFGQGTKLEIK heavy: not shown | 2.05 | 12.9 | 5.51 | 21 |  |  | 
2 | bispecific antibody LB135 (bispecific antibody, human IgG4 S228P, kappa, ab6VL-(G4S)3-ab6VH-(G4S)3-Ba08VH-hIgG4 with Ba08VL-κ) light: EIVLTQSPATLSLSPGERATISCRASKGVSTSGYSYLHWYQQKPGQAPRLLIYLASYLESGVPARFSGSGSGTDFTLTISSLEPEDFATYYCQHSRELPLTFGTGTKVEIKRTVAAPSVFIFPPSDEQLKSGTASVVCLLNNFYPREAKVQWKVDNALQSGNSQESVTEQDSKDSTYSLSSTLTLSKADYEKHKVYACEVTHQGLSSPVTKSFNRGEC heavy: not shown |  |  |  |  |  |  | EC50 [5]: 0.082 nM; IC50 [6]: 1.49 nM; EC50 [7]: 0.145 nM
3 | bispecific antibody LB124 (bispecific antibody, human IgG4 S228P, kappa) light: EIVLTQSPATLSLSPGERATISCRASKGVSTSGYSYLHWYQQKPGQAPRLLIYLASYLESGVPARFSGSGSGTDFTLTISSLEPEDFATYYCQHSRELPLTFGTGTKVEIKRTVAAPSVFIFPPSDEQLKSGTASVVCLLNNFYPREAKVQWKVDNALQSGNSQESVTEQDSKDSTYSLSSTLTLSKADYEKHKVYACEVTHQGLSSPVTKSFNRGEC heavy: not shown |  |  |  |  | 0.383 | 0.438 | 
4 | bispecific antibody LB247 (bispecific antibody, human IgG4 S228P, kappa) light: EIVLTQSPATLSLSPGERATLSCRASKGVSTSGYSYLHWYQQKPGQAPRLLIYLASYLESGVPARFSGSGSGTDFTLTISSLEPEDFAVYYCQHSRDLPLTFGGGTKVEIKRTVAAPSVFIFPPSDEQLKSGTASVVCLLNNFYPREAKVQWKVDNALQSGNSQESVTEQDSKDSTYSLSSTLTLSKADYEKHKVYACEVTHQGLSSPVTKSFNRGEC heavy: not shown | 1.86 | 2.38 | 0.19 | 1.98 |  |  | Kd (Human PD-1-his): 7.34 nM; koff (Human PD-1-his): 0.00259 s⁻¹; kon (Human PD-1-his): 353000 M⁻¹ s⁻¹; Kd [10]: 8.29 nM; koff [10]: 0.00332 s⁻¹; kon [10]: 401000 M⁻¹ s⁻¹
5 | bispecific antibody LB123 (bispecific antibody, human IgG4 S228P, kappa) light: EIVLTQSPATLSLSPGERATISCRASKGVSTSGYSYLHWYQQKPGQAPRLLIYLASYLESGVPARFSGSGSGTDFTLTISSLEPEDFATYYCQHSRELPLTFGTGTKVEIKRTVAAPSVFIFPPSDEQLKSGTASVVCLLNNFYPREAKVQWKVDNALQSGNSQESVTEQDSKDSTYSLSSTLTLSKADYEKHKVYACEVTHQGLSSPVTKSFNRGEC heavy: not shown |  |  |  |  | 0.216 | 0.181 | 
6 | bispecific antibody LB147 (bispecific antibody, human IgG4 S228P, kappa, Ab32VL-(G4S)3-ab32VH-(G4S)3-PemVL-κ with PemVH-hIgG4) light: DIQMTQSPSSLSASVGDRVTITCRASENIYSYLTWYQQKPGKAPKLLIYNAKTLAEGVPSRFSGSGSGTDFTLTISSLQPEDFATYYCQQHYGTPLTFGQGTKLEIKGGGGSGGGGSGGGGSEVQLVESGGGLVKPGGSLRLSCAASGFTFSDYYMTWVRQAPGKGLEWVSSINYDGRNTYYLDSLKSRFTISRDNAKNSLYLQMNSLRAEDTAVYYCARGYYYYGSSPNYFDYWGQGTLVTVSSGGGGSGGGGSGGGGSEIVLTQSPATLSLSPGERATLSCRASKGVSTSGYSYLHWYQQKPGQAPRLLIYLASYLESGVPARFSGSGSGTDFTLTISSLEPEDFAVYYCQHSRDLPLTFGGGTKVEIKRTVAAPSVFIFPPSDEQLKSGTASVVCLLNNFYPREAKVQWKVDNALQSGNSQESVTEQDSKDSTYSLSSTLTLSKADYEKHKVYACEVTHQGLSSPVTKSFNRGEC heavy: not shown | 0.62 | 0.79 | 0.056 | 0.81 |  |  | 
7 | bispecific antibody LB127 (bispecific antibody, human IgG4 S228P, kappa) light: DIQMTQSPSSLSASVGDRVTITCHASQGISSNIGWLQQKPGKAFKGLIYQGSNLEDGVPSRFSGSGSGADYTLTISSLQPEDFATYYCVQFAQFPPTFGQGTKLEIKRTVAAPSVFIFPPEIVLTQSPATLSLSPGERATISCRASKGVSTSGYSYLHWYQQKPGQAPRLLIYLASYLESGVPARFSGSGSGTDFTLTISSLEPEDFATYYCQHSRELPLTFGTGTKVEIKRTVAAPSVFIFPPSDEQLKSGTASVVCLLNNFYPREAKVQWKVDNALQSGNSQESVTEQDSKDSTYSLSSTLTLSKADYEKHKVYACEVTHQGLSSPVTKSFNRGEC heavy: not shown |  |  |  |  | 0.423 | 0.325 | 
8 | bispecific antibody LB129 (bispecific antibody, human IgG4 S228P, kappa) light: DIQMTQSPSSLSASVGDRVTITCRASENIYSYLTWYQQKPGKAPKLLIYNAKTLAEGVPSRFSGSGSGTDFTLTISSLQPEDFATYYCQQHYGTPLTFGQGTKLEIKRTVAAPSVFIFPPEIVLTQSPATLSLSPGERATISCRASKGVSTSGYSYLHWYQQKPGQAPRLLIYLASYLESGVPARFSGSGSGTDFTLTISSLEPEDFATYYCQHSRELPLTFGTGTKVEIKRTVAAPSVFIFPPSDEQLKSGTASVVCLLNNFYPREAKVQWKVDNALQSGNSQESVTEQDSKDSTYSLSSTLTLSKADYEKHKVYACEVTHQGLSSPVTKSFNRGEC heavy: not shown |  |  |  |  | 0.508 | 0.558 | 
